Consider one substance from US20240368675.

For the data set, the system named is T1, Gs12-10 (uncultured bacterium (metagenome)?).
T1 sequence: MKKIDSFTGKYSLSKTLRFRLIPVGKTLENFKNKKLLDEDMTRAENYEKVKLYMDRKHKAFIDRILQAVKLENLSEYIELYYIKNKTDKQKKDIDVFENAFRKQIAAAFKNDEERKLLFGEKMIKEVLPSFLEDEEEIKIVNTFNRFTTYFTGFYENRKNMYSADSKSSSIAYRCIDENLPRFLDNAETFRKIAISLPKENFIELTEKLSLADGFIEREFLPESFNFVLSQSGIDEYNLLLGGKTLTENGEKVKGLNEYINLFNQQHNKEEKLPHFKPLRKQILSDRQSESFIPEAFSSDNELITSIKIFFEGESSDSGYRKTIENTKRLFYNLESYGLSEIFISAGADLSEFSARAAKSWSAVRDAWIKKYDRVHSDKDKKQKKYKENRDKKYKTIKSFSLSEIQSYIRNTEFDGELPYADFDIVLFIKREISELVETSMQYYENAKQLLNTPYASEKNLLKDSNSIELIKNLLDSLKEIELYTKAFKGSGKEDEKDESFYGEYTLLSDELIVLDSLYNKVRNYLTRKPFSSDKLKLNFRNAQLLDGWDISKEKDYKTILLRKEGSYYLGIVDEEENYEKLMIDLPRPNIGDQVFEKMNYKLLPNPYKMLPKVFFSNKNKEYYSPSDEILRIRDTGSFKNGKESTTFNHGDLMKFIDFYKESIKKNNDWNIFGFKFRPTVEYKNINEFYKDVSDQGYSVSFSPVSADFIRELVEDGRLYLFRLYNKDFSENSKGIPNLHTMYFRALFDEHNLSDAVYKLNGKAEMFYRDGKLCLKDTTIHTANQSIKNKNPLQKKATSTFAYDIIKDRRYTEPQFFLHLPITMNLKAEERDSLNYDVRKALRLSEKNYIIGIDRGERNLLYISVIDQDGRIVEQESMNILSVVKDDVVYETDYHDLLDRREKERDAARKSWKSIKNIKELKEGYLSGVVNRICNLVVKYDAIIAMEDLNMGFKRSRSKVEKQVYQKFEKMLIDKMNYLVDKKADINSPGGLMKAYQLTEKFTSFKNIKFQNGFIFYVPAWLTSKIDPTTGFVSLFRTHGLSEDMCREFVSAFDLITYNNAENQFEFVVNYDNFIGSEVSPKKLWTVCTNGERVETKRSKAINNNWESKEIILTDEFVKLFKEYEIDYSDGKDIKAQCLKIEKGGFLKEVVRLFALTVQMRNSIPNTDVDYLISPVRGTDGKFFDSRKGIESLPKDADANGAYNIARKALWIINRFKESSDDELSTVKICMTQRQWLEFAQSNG
The experiment in a line: cleavage_in_vitro. The note with it: PAM ATTT; CutSmart buffer, 37 C, 2 h.

The substance “crRNA-ATTT pUC19 ; pUC19 circular plasmid” gave an activity of 100 % linearised.
